This is an account of results in paper PMC6715622.

Common to all, as to assay: EMSA
Data set [1] relates to RsmA4 (Pseudomonas syringae pv. tomato DC3000).
Data set [2] relates to RsmA2 (Pseudomonas syringae pv. tomato DC3000).
The subject of data set [3] is RsmA3 (Pseudomonas syringae pv. tomato DC3000).
Data set [4] relates to RsmA1 (Pseudomonas syringae pv. tomato DC3000).

With rsmX1, the binding signal in data set [1] was determined as 640 nM; in data set [2], 40 nM; in data set [3] it was 40 nM; in data set [4] it was 320 nM.

For rsmZ, the binding signal in data set [1] worked out at 640 nM; in data set [2] it was 40 nM; in data set [3], 40 nM; in data set [4] it was 320 nM.

Regarding rsmX5, the binding signal was found to be 640 nM in data set [1], 40 nM in data set [2], 40 nM in data set [3] and 320 nM in data set [4].

Turning to rsmY, the binding signal in data set [1] turned out to be 640 nM; in data set [2], 40 nM; in data set [3], 40 nM; in data set [4], 320 nM.
